According to patent publication US20100047226A1 (published 2010):

Experiments:
Assay in all cases: cell-based or functional assay
p70S6K (active form) = p70S6K (active form) (UniProt P23443 1-421)
JAK3 (active form) = JAK3 (active form) (UniProt P52333 781-1124, limits assumed)
PAK3 (active form) = PAK3 (active form) (UniProt O75914 1-559, limits assumed)
SGK (active form) = target: T1, SGK (active form) (UniProt O00141 60-431, limits assumed)
T1 sequence (looked up): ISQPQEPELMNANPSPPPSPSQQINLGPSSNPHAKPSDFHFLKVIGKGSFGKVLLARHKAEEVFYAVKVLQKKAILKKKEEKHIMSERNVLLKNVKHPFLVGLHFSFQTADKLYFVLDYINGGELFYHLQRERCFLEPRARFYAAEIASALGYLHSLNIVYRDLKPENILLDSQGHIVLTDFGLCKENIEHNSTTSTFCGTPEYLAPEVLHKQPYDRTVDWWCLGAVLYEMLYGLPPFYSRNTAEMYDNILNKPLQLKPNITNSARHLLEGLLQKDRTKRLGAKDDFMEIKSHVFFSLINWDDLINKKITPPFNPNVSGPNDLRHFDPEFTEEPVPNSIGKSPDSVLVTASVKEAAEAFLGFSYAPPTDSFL

TrkB (active form) = TrkB (active form) (UniProt Q16620 526-822, limits assumed)
Chain of TrkB (active form) (Q16620 526-822 limits assumed): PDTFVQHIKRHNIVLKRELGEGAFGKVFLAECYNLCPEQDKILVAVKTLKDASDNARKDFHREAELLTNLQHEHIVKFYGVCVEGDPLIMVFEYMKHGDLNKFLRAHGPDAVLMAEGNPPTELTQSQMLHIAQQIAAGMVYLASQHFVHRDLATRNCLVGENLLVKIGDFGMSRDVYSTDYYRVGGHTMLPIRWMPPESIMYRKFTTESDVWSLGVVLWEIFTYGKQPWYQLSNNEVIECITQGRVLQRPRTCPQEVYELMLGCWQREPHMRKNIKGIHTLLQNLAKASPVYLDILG

AKT2 (active form) = AKT2 (active form) (UniProt P31751 120-481, limits assumed)
Chain of AKT2 (active form) (P31751 120-481 limits assumed): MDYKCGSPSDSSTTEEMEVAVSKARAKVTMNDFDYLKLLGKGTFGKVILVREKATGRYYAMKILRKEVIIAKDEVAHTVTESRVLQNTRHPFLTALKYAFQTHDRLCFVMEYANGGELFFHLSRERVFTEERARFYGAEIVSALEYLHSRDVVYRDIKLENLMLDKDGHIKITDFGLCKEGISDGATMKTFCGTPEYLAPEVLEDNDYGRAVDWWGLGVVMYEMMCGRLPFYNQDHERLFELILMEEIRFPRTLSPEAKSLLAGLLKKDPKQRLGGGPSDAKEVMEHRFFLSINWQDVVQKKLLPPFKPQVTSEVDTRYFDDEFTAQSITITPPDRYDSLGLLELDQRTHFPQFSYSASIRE

PI3K[…] (active form) = target: PI3K[…] (active form)
Abl (active form) = Abl (active form) (UniProt P00519 27-1130, limits assumed)
Chain of Abl (active form) (P00519 27-1130 limits assumed): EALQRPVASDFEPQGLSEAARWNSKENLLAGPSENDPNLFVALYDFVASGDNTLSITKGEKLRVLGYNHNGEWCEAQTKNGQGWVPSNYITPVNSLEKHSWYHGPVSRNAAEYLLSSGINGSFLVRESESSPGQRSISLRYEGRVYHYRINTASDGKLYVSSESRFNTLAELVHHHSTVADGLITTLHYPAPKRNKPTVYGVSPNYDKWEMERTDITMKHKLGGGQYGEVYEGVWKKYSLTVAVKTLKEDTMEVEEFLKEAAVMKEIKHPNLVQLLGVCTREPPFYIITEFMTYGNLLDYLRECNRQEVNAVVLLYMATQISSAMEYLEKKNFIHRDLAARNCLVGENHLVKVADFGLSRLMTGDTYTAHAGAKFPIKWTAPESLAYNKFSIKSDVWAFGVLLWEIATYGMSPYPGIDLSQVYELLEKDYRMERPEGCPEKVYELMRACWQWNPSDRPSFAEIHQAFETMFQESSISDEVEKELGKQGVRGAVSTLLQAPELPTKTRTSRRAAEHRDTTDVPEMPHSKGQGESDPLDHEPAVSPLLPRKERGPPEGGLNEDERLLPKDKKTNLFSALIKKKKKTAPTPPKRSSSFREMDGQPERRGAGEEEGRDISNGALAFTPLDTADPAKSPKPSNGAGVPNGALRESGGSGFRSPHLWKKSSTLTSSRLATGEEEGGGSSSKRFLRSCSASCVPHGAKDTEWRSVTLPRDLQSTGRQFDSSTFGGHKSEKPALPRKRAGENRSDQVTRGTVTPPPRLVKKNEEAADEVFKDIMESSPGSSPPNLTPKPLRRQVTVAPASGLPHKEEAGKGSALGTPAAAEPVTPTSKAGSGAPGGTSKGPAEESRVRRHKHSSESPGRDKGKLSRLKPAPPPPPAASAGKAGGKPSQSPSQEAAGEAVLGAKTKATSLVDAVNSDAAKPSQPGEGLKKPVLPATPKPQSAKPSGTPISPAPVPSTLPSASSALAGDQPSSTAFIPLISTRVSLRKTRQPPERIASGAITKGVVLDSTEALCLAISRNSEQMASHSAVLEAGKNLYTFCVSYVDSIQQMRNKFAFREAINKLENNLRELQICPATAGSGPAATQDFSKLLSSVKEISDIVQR

Chain of JAK3 (active form) (P52333 781-1124 limits assumed): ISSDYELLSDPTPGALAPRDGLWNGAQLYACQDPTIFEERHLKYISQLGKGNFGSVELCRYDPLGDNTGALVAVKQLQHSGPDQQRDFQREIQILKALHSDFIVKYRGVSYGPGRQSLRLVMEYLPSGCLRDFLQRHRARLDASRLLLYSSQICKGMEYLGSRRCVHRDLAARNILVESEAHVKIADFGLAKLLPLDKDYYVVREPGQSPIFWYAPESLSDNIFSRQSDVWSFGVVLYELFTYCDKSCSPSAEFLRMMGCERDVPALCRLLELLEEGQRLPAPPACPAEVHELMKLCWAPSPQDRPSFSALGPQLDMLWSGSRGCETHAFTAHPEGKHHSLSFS
Chain of PAK3 (active form) (O75914 whole entry): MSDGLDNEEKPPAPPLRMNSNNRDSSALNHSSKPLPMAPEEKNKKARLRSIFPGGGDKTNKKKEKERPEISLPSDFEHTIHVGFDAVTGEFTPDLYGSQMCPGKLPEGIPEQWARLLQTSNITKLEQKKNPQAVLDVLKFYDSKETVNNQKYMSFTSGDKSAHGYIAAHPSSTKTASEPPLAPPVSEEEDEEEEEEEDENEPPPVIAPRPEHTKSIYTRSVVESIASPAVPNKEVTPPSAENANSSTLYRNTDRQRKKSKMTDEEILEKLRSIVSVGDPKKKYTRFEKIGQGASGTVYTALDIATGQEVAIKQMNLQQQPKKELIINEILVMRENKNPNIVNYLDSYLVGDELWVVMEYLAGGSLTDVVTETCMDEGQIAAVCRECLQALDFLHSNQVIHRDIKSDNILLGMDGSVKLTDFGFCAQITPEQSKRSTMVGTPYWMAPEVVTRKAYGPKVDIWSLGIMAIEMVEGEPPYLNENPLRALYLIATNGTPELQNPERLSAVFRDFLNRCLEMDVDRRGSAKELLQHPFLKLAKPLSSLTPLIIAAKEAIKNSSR
Chain of p70S6K (active form) (P23443 1-421): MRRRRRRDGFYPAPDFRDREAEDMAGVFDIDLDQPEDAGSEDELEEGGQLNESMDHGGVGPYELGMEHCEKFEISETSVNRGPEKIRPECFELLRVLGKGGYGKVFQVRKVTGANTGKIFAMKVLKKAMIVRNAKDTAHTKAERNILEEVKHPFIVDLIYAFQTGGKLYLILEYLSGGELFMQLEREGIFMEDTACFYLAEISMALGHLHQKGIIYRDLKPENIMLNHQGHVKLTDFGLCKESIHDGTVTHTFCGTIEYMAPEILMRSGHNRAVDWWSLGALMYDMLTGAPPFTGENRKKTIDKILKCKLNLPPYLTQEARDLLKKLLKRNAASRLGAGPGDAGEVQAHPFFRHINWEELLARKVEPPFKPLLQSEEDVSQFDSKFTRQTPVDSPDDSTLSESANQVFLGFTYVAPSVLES

Binder: AKRVKGRTWTLCGTPEY [ZaTa peptide (PKAc fragment flanking Thr-197)]
- in vitro kinase assay at ten times the IC50 for AKT1 (p70S6K (active form)): 64%
- in vitro kinase assay at ten times the IC50 for AKT1 (JAK3 (active form)): 79%
- in vitro kinase assay at ten times the IC50 for AKT1 (PAK3 (active form)): 83%
- in vitro kinase assay at ten times the IC50 for AKT1 (SGK (active form)): 73%
- in vitro kinase assay at ten times the IC50 for AKT1 (TrkB (active form)): 84%
- in vitro kinase assay at ten times the IC50 for AKT1 (AKT2 (active form)): 63%
- in vitro kinase assay at ten times the IC50 for AKT1 (PI3K[…] (active form)): 72%
- in vitro kinase assay at ten times the IC50 for AKT1 (Abl (active form)): 42%
